# Measurements from the supplement of paper PMC9170038.
# Tests used:
# MS2 coat protein [1] = experiment: apparent KD of MS2 coat protein, switch ON state; designed switch direction (-1 OFF switch, 1 ON switch): -1; higher = weaker reporter binding; conditions: FMN input: 0 or 200 uM; Eterna round: R93 (includes R88 designs)
# Procedure, shortened: (§1)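 Binding of SNAP-549-labelled MS2 coat protein was measured on designed RNA switches transcribed on-chip from Illumina sequencing clusters. The protein rose in twofold steps from 0.7 or 1.5 nM to 3 µM, with 0.8–1.5 h per step early on and 10–20 min per step later, in 100 mM Tris-HCl pH 7.5, 80 mM KCl, 4 mM MgCl2, without or with constant ligand. Each design's apparent KD is the median of fits to its normalised cluster binding curves.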
# MS2 coat protein [2] = experiment: apparent KD of MS2 coat protein, switch OFF state (with FMN for OFF switches, without FMN for ON switches); designed switch direction (-1 OFF switch, 1 ON switch): -1; higher = weaker reporter binding; conditions: FMN input: 0 or 200 uM; Eterna round: R93 (includes R88 designs)
# Procedure, shortened: as §1
sequence,measurement,setting,value
AAGCUGGUAGGAUAUACUAGGGCAACUAAUGAGCCGAUAGGACAUGAGGAUCACCCAUGUAGAAGGGCCAGAAA [Mat - Exclusion 2 - JL mod - D64],apparent KD of MS2 coat protein,MS2 coat protein [1],74.4 nM
same,apparent KD of MS2 coat protein,MS2 coat protein [2],125 nM
AAGGGACAUGAGGAUCACCCAUGUCAGGAUAUCGGAAAAGGAAAAAUAAAAAAGAAGACGAGAAGGGACACCAA [Mat - Exclusion 1 - Eli mod - D77],apparent KD of MS2 coat protein,MS2 coat protein [1],38.4 nM
same,apparent KD of MS2 coat protein,MS2 coat protein [2],32.4 nM
"AAGGGACAUGAGGAUCACCCAUGUCAGGAUAUGAUGCGAAUAAAGAAAGAAGAAAGCAUCAGAAGGGACACCAA [58%, Disencluded 3, 4]",apparent KD of MS2 coat protein,MS2 coat protein [1],24.4 nM
same,apparent KD of MS2 coat protein,MS2 coat protein [2],33.7 nM
AAGGGACAUGAGGAUCACCCAUGUCAGGAUAUGAUGCGAAUAAAGAAAGAAUAAAGCAUCAGAAGGGACAAAAA [Mat - Exclusion 1 - Eli mod - D63],apparent KD of MS2 coat protein,MS2 coat protein [1],35.6 nM
same,apparent KD of MS2 coat protein,MS2 coat protein [2],55.7 nM
"AAGGGACAUGAGGAUCACCCAUGUUAGGAUAUGCAAACAACAAACAACAAACAACAAAGCAGAAGGGACAAAAA [63%, Olong, 6]",apparent KD of MS2 coat protein,MS2 coat protein [1],30.5 nM
same,apparent KD of MS2 coat protein,MS2 coat protein [2],28.8 nM
AAGUAACAUGAGGAUCACCCAUGUGAGGAUAUGAUUUAAGUUGUAAAAGUAAUAAAGGUCAGAAGGUAUGUGAA [Exclusion 1.2],apparent KD of MS2 coat protein,MS2 coat protein [1],30.9 nM
same,apparent KD of MS2 coat protein,MS2 coat protein [2],34.7 nM
AAGUAGGUAGGAUAUGCAUAGAUAUAUAUUCAUGUGGAACUACAUGAGGAUCACCCAUGUAGAAGGACCUAAUA [AJ 42],apparent KD of MS2 coat protein,MS2 coat protein [1],18.1 nM
same,apparent KD of MS2 coat protein,MS2 coat protein [2],17.1 nM
AAUAAACAUGAGGAUCACCCAUGUCAGGAUAUCCUAAAUAAAAAAAUAUAAAGAAGAAGGAGAAGGGACUAAAA [Mystem Exclusion 1],apparent KD of MS2 coat protein,MS2 coat protein [1],47.2 nM
same,apparent KD of MS2 coat protein,MS2 coat protein [2],53.5 nM
AAUAAACAUGAGGAUCACCCAUGUGAGGAUAUGGUAUAAUUAGGACAGUAAUGAUAAACCAGAAGGCACAAAUA [JR_Exc001_Sub1103],apparent KD of MS2 coat protein,MS2 coat protein [1],35.6 nM
same,apparent KD of MS2 coat protein,MS2 coat protein [2],42.6 nM
AAUAACAGAGGAUAUACGAAAAUAAGCGGAAACGCAAAGGGACAUGAGGAUCACCCAUGUAGAAGGCUGGAUAA [Tetraloop... 61% 2],apparent KD of MS2 coat protein,MS2 coat protein [1],28.3 nM
same,apparent KD of MS2 coat protein,MS2 coat protein [2],148 nM
AAUAACUGAGGAUAUACUAAAGAAAUGAAAAGAAAUAAAGAACAUGAGGAUCACCCAUGUAGAAGGCAGAAUAA [Nuya],apparent KD of MS2 coat protein,MS2 coat protein [1],32 nM
same,apparent KD of MS2 coat protein,MS2 coat protein [2],30.6 nM
AAUAAGACAGGAUAUACGAAAAUAAGCGGAAACGCAAAGGGACAUGAGGAUCACCCAUGUAGAAGGGUCGAUAA [Tetraloop... 61% 3],apparent KD of MS2 coat protein,MS2 coat protein [1],80.2 nM
same,apparent KD of MS2 coat protein,MS2 coat protein [2],190 nM
AAUAAGAGAGGAUAUACUAAAGAAAUGAAAAGAAAUAAAGAACAUGAGGAUCACCCAUGUAGAAGGCUCAAUAA [Bebnum],apparent KD of MS2 coat protein,MS2 coat protein [1],24.4 nM
same,apparent KD of MS2 coat protein,MS2 coat protein [2],24.6 nM
AAUAUCGGAGGAUAUGCAUAGAUAAAGAAUUAUGUUAAAACACAUGAGGAUCACCCAUGUAGAAGGCCGAUAAA [AJ 8],apparent KD of MS2 coat protein,MS2 coat protein [1],22.2 nM
same,apparent KD of MS2 coat protein,MS2 coat protein [2],88 nM
AAUUCACAUGAGGAUCACCCAUGUAAGGAUAUCGAAAUAAAACUAAACAAAAAACAAACGAGAAGGUACAAAAA [Exclusion 1 design 6],apparent KD of MS2 coat protein,MS2 coat protein [1],25 nM
same,apparent KD of MS2 coat protein,MS2 coat protein [2],23.3 nM
ACAAACCGAGGAUAUACAUGAGGAUCACCCAUGUAGACGAACACAUGCGUCAUCACCAGUAGAAGGUGGAAAAC [Telaandi],apparent KD of MS2 coat protein,MS2 coat protein [1],29.9 nM
same,apparent KD of MS2 coat protein,MS2 coat protein [2],26.3 nM
ACAAGAUCAGGAUAUACAUGAGGAUCACCCAUGUAUAAAAAAAAAGGGCCUUCUACAUGUAGAAGGGAUCUUGU [EX3 290: Random 26],apparent KD of MS2 coat protein,MS2 coat protein [1],14.3 nM
same,apparent KD of MS2 coat protein,MS2 coat protein [2],19.9 nM
ACAUGACAUGAGGAUCACCCAUGUGAGGAUAUGCGAAAAAAAAAAAAAAAAAAAAUUGGCAGAAGGCACAAAAU [Jean Baudrillard],apparent KD of MS2 coat protein,MS2 coat protein [1],202 nM
same,apparent KD of MS2 coat protein,MS2 coat protein [2],153 nM
ACCGAUCGAGGAUAUACAUGAGGAUCACCCAUGUAAAGCAGAAGAAAGGCCUCAGGAUGUAGAAGGCGACGCAA [JR_Exc003_Sub405],apparent KD of MS2 coat protein,MS2 coat protein [1],20.1 nM
same,apparent KD of MS2 coat protein,MS2 coat protein [2],28.3 nM
ACGUAGUCAGGAUAUACGAACAUGUCAAAAGACGUGAAGGGACAUGAGGAUCACCCAUGUAGAAGGGACUACGA [Mat - Exclusion 2 - JL mod - D5],apparent KD of MS2 coat protein,MS2 coat protein [1],43.1 nM
same,apparent KD of MS2 coat protein,MS2 coat protein [2],129 nM
